Source: patent publication US9663815B2, “Cytosolically-active peroxidases as reporters for microscopy” (Massachusetts Institute of Technology, priority 2011, dated 2017)
Entries after “also recorded” stand apart in the source; their conditions may differ.

Experiments:
[1] = Guaiacol activity assay (Michaelis-Menten kinetics); assay type: biochemical; details: guaiacol as substrate, purified enzyme
Method: Data points represent the mean±standard deviation of 2-3 independent measurements. Initial rates are shown as a function of guaiacol concentration. H2O2 concentration was 90 μM, and enzyme concentration was 20 nM in all trials. Oxidation to tetraguaiacol was monitored by absorbance at 470 nm (ε470=22×10^3 M^−1 cm^−1)^2.
High activity toward guaiacol generally correlated well with robust polymerization of DAB in vitro. Guaiacol assays were performed on a Nanodrop 2000c UV-vis spectrophotometer (Thermo Scientific) using its cuvette reader. HRP (Sigma) was prepared as a 10 μM stock in PBS, flash frozen and stored at −80° C., and thawed immediately before use. Guaiacol peroxidase activity was measured according to the protocol of Lad et. al.^35 Oxidation to tetraguaiacol was monitored by absorbance at 470 nm (ε470=22×10^3 M^−1 cm^−1). Kcat and KM were calculated by nonlinear regression fitting to the Michaelis-Menten equation using OriginPro (OriginLab Corporation). All values are reported as the mean±standard deviation for 2-3 independent Michaelis-Menten fittings, with each fitting using at least 5 values of substrate concentration ranging between 0.25 and 30 mM.
In order to improve the performance of mAPX in mammalian cells, monomeric APX was engineered with improved activity toward DAB in the hope that faster kinetics could compensate for diminished heme binding. The substrate binding site of APX was compared to that of HRP, which has faster kinetics and broader aromatic substrate tolerance (Henriksen, et. al., Journal of Biological Chemistry 274, 35005-35011 (1999)). In order to make APX more HRP-like, seven mutants of APX were designed that incorporated mostly aromatic residues into the active site (FIG. 5a). A colorimetric assay was employed using guaiacol, a prototypical aromatic peroxidase substrate, to determine Michaelis-Menten parameters (Kumar, et. al., Journal of Cell Science 108, 3725-3734 (1995); Henriksen, et. al., Journal of Biological Chemistry 274, 35005-35011 (1999)) (FIG. 5b and FIG. 10). […]

[2] = Gel filtration chromatography, oligomerization state; assay type: physicochemical
Method: APX, fluorescent protein, or miniSOG preparations were diluted to the desired concentrations using chilled (4° C.) PBS and then allowed to incubate at room temperature for 30 min to overnight. Samples (100 μL) were run on a Waters HPLC system over a Superdex 75 10/300 column (GE Healthcare) that had been pre-equilibrated in PBS, pH 7.4. Samples were run isocratically in PBS at a flow rate of 0.5 mL/min. Elution of APX was monitored at 280 nm and 405 nm (heme absorbance). Empower software (Waters) was used for analysis of elution profiles. Apparent MWs were determined against low molecular weight standards (GE). […] The apparent MW of the monomer for wt APX was assumed to be equal to the apparent MW of mAPX at 0.25 μM.
To investigate whether this localization is an artifact of APEX dimerization at high concentrations, the experiment was repeated using a tandem dimer of APX^W41F (two APX^W41F proteins linked with a short amino acid chain, denoted tdAPX) as well as miniSOG in place of APEX. Additionally, gel filtration chromatography (GFC) was used to assess the relative abundance of oligomers that formed at increasing tdAPX concentrations in vitro (5 μM, 20 μM, and 47 μM). Three different linker lengths (18, 23, and 28 amino acids) were tested. His6-tagged proteins were expressed and purified from E. coli. All three variants gave a major peak with an apparent molecular weight (MW) of ˜56 kDa, as expected for tdAPX. The apparent MW of the major peak remained constant as a function of concentration for all three constructs. […] Therefore, the 28 amino acid linker variant was selected as the optimized tandem dimer to be used in EM experiments.

connexin43 (Cx43) = experiment: Connexin43 fusion localization to gap junctions; assay type: cell-based, rat; details: fused to connexin43
Method: Both mAPX and wt APX were fused to connexin43 (Cx43), a protein that is sensitive to oligomeric tags (FIG. 4d) (McKinney, et. al., Nat Meth 6, 131-133 (2009); Lauf, et. al., FEBS letters 498, 11-15 (2001)).
To generate a monomeric APX with improved activity, the two mAPX mutations (K14D/E112K) were added to each of the activity-enhanced mutants. […] The sextuple mutant (K14D, E112K, W41F, D133A, T135F, K136F=mAPX−FFAF), was compared to mAPX+W41F within cells. HEK cells were transfected with constructs targeted to the mitochondrial matrix (Table 3), while COS-7 cells were transfected with constructs fused to the C-terminus of connexin 43 (Table 3). After fixation, the cells were treated with DAB and H2O2 to generate DAB polymer. […] After fixation, cells were stained with anti-Flag (for matrix) or anti-myc (for connexin) antibody to visualize peroxidase expression levels. […] Therefore mAPX+W41F (K14D/E112K/W41F) was selected, denoted as “APEX” (for Enhanced APX), as the optimized reporter for subsequent experiments.
Any cell displaying detectable GFP fluorescence was considered transfected. Contact sites between neighboring transfected cells were identified using DIC imaging. Gap junctions were identified as lines of GFP fluorescence unambiguously overlaying with the plasma membrane of two transfected cells based on DIC. DAB stain intensity for APX-NES variants was analyzed using SlideBook. Transfected cells were identified by nuclear YFP fluorescence. In each transfected cell, a representative DAB-stained region was encircled, and its average brightfield intensity was calculated. Background intensity, determined for each field of view by encircling a representative region in the cytosol of an untransfected cell, was subtracted out. The bar graph in FIG. 2c represents mean data from >60 transfected cells.

| Molecule | activity in vitro (guaiacol) [1] | oligomerization state ([2]; PBS pH 7.4) | localization of connexin43 fusion / gap junction formation (connexin43 (Cx43)) | oligomerization state ([2]; PBS pH 7.4, listed as APX K14D/E112K) |
| --- | --- | --- | --- | --- |
| wt APX: pea cytosolic ascorbate peroxidase (Pisum sativum), wild type, about 28 kD, dimeric (protein, listed as Pisum sativum) MGKSYPTVSPDYQKAIEKAKRKLRGFIAEKKCAPLILRLAWHSAGTFDSKTKTGGPFGTIKHQAELAHGANNGLDIAVRLLEPIKEQFPIVSYADFYQLAGVVAVEITGGPEVPFHPGREDKPEPPPEGRLPDATKGSDHLRDVFGKAMGLSDQDIVALSGGHTIGAAHKERSGFEGPWTSNPLIFDNSYFTELLTGEKDGLLQLPSDKALLTDSVFRPLVEKYAADEDVFFADYAEAHLKLSELGFAEA | equally active | predominantly dimeric at 0.25 μM; also recorded: runs as a dimer | abnormal retention inside cells | – |
| mAPX: double mutant K14D/E112K of pea APX (SEQ ID NO:1), monomeric (protein, listed as Pisum sativum) MGKSYPTVSPDYQDAIEKAKRKLRGFIAEKKCAPLILRLAWHSAGTFDSKTKTGGPFGTIKHQAELAHGANNGLDIAVRLLEPIKEQFPIVSYADFYQLAGVVAVEITGGPKVPFHPGREDKPEPPPEGRLPDATKGSDHLRDVFGKAMGLSDQDIVALSGGHTIGAAHKERSGFEGPWTSNPLIFDNSYFTELLTGEKDGLLQLPSDKALLTDSVFRPLVEKYAADEDVFFADYAEAHLKLSELGFAEA | equally active | comparable to EYFP and much more monomeric than both wt APX and mEos2 | – | most monomericity |
